# Assay results published in patent US20060211043A1.
# Biological target: USP-AE, segment from A region to E region of Ultraspiracle (USP) of Spodoptera litura, N-terminal His tag, expressed in Escherichia coli (Spodoptera litura)
# Assay: cell-based or functional assay
substance,measurement,value
"EcR-DF, segment from D region to F region of the molting hormone receptor (EcR) of Spodoptera litura, N-terminal His tag, expressed in Escherichia coli and refolded by gel filtration",molar ratio of EcR-DF to USP-AE at which ponasterone A binding saturates (USP-AE titrated onto a fixed amount of EcR-DF) (molar ratio EcR-DF:USP-AE (1:1)),1
